Measured values published in the DeepSol protein solubility set.

test: soluble on expression in E. coli; label from the status in PepcDB or PDB records

| Sequence | soluble on expression in E. coli |
| --- | --- |
| MNRKPRTRSTIVPGRKMITEIVALREAGLDDTRPSYLEEPTVIVDESMMNDSANLEEREWRKQGLSEKQMFAILEKRKQTQLNNARKRLEKEMYGAKTFKELIACREYSECESDSENTVNQNVRSASVFAIPALPKHISEKSMMGSPIANSRGSGKAGLSCSTPKSSSDTSMRSLRSLDISHVVNTDRLDAERVTVHTKSVVIPTILEERESTLQKTLTIEKNHSSQLQKTFTVAEDAPEELQKTVTIEKNQSSEMQRTFTVAKDASKEQSQLQRTVTIEKNQSSQLQGNFTVAKDAPEELQKTVTIEKNQSSEMQGTVTVAKDAEHSSLQKTFTKPTEKDESSLQRTFNVANRDENNDSTLQKTFIIEERDAYEQGTTSVGVKPPVLAQNTMEGGEKRRTSKVTSDERERRNASISNPLHNSMLEKEEIQSPGANFFKHPRKKIRPVVQTPPRIKATSRLSTESNKERTIEMESVAEERTMEADSIGSSYISPTFNASRVSPVPEVPEKVEPMHVSKAATPKSIRHTDNSIRNIGPTNNVECARAALLSTPTRMDIVDSVNRVTPARRYEQPTFASLVKRMNMKDANRLLEETSRKNTPAKTTATTSSAAVRMVLEDDEEDQATEVIEKRSENGGVIVDGEDEAADSSNRSLNIELNALTVNEEPAHDISAIDFPEDDTNEMRSSSDEEEMEARPDPRKKSSRRLGLLSDSIALGLASSSRRRPNDTFVDETWYPEPNSKGNRRPRTHRGMKLKEHQLMKPEDAPDGVRRSTRVRVKPVRSWLGEQPVYVNSPISGCKRLTGVTAVVIKDPRLCYYRTADVRTATERELKDKANKRALAQEKKQQRQNARSGRRHDSDDDEEDDM | not soluble |
| MVEAIIFDMDGVLFDTEKYYYDRRASFLGQKGISIDHLPPSFFIGGNTKQVWENILRDEYDKWDVSTLQEEYNTYKQNNPLPYKELIFPDVLKVLNEVKSQGLNIGLASSSVKADIFRALEENRLQAFFDIVLSGEEFKESKPNPEIYLTALKQLNVQASRALIIEDSEKGIAAGVAADVEVWAIRDNLFGMDQSAAKGLLDSLTDVLDLIK | not soluble |
| MEQLLFRHNRPGRCVTFAEYRAEGGFAALEKALAGMSPNDVQQVVIDSGLRGRGGAGFPTGKKWSFVPRDIPGPRYLICNCDEMEPGTYKDRVLLEANPYSLVEGMTLAAYAIGVAHAFIFIRRGYEEAAENCRRAIAEAKAAGLLGENILGTGFSLELDVHQSAGRYICGEETALMNALEGKRANPRSKPPFPAVKGLWGRPTVVNNVETLANIPAIVANGAAWFKGLARIPEAAGMKLFCVSGHVNNTACFELPLGMTLGEIIDGPCGGMLPGREFKACIPGGASTPFFTKEHWHVPMDFDTVAKAGSRLGTGGIVVFDRDTCMVAATLNLIVFYARESCGWCTPCREGLPFVQDVLARIEAGEGREEHIGILREHIQYLNYSFCPLAPGAMGPVEGLLRLFEGEIREHIVLGRCPFGGKLEHHHHHH | not soluble |
| AQGQTVYFHAWGGSQEINHYLQWANKELQSKYQVTLKHVKVSDISETIPRLIAEKAADKNTNGSVDMVWINGENFKSMKDNQLLFGPFTENLPSWKYVDKMLPIDVDFSEPTDGLEAPWGVGQLVFIHDSENLTNPPHSFAEMLSYAQKKPNSLSYPRPPEFHGTSVLKSMLIELTNNNPALQKPVSESDFNAVTAPLWDYLEKFHKVAWRGGKQFPAGTSETIQLLDDGQLDLAVTFNPNAVYSAQANGNLANTTKAYAMDSGALSNIHFLAIPWNAKASAGAQVAINFLLSPEAQSRKGDLNVWGDPSVLSSKYLTGSAKNTQQFKSVSEPHPSWQAAIEKEWLKRFGS | not soluble |
| MGSDKIHHHHHHMTEQATTTDELAFTRPYGEQEKQILTAEAVEFLTELVTHFTPQRNKLLAARIQQQQDIDNGTLPDFISETASIRDADWKIRGIPADLEDRRVEITGPVERKMVINALNANVKVFMADFEDSLAPDWNKVIDGQINLRDAVNGTISYTNEAGKIYQLKPNPAVLICRVRGLHLPEKHVTWRGEAIPGSLFDFALYFFHNYQALLAKGSGPYFYLPKTQSWQEAAWWSEVFSYAEDRFNLPRGTIKATLLIETLPAVFQMDEILHALRDHIVGLNCGRWDYIFSYIKTLKNYPDRVLPDRQAVTMDKPFLNAYSRLLIKTCHKRGAFAMGGMAAFIPSKDEEHNNQVLNKVKADKSLEANNGHDGTWIAHPGLADTAMAVFNDILGSRKNQLEVMREQDAPITADQLLAPCDGERTEEGMRANIRVAVQYIEAWISGNGCVPIYGLMEDAATAEISRTSIWQWIHHQKTLSNGKPVTKALFRQMLGEEMKVIASELGEERFSQGRFDDAARLMEQITTSDELIDFLTLPGYRLLA | not soluble |
| MNDEIKVSVLIITYNQARFIKKAIESALEQKTKFKYEIIVMDDCSSDSTIKIAGKYAEKYTDIIKVYSNNKNLGITKNYKEGFKKCRGEYIAVLEGDDYWNNKQKLQIQSNFLDRHKNFSAVFNRYIIYNAINNSKATQAWRSNTSYETITIEQLTRGNVIGNFSTCMYRKSCVDKVKESLYDMLVYDWMFNMVIAEQKPIAYLPQICSVYRIHSRGTWMGNSVKNRLALTIKLIDVYNAFFGFKYNSNFKLLKKNVYKQLINLEHHHHHH | soluble |
| MDRTRIVRRWRRNMDVADDAEYVEMLATLSEGSVRRNFNPYTDIDWESPEFAVTDNDPRWILPATDPLGRHPWYQAQSRERQIEIGMWRQANVAKVGLHFESILIRGLMNYTFWMPNGSPEYRYCLHESVEECNHTMMFQEMVNRVGADVPGLPRRLRWVSPLVPLVAGPLPVAFFIGVLAGEEPIDHTQKNVLREGKSLHPIMERVMSIHVAEEARHISFAHEYLRKRLPRLTRMQRFWISLYFPLTMRSLCNAIVVPPKAFWEEFDIPREVKKELFFGSPESRKWLCDMFADARMLAHDTGLMNPIARLVWRLCKIDGKPSRYRSEPQRQHLAAAPAA | not soluble |
| MPTSLKDTVKLHNGVEMPWFGLGVFKVENGNEATESVKAAIKNGYRSIDTAAIYKNEEGVGIGIKESGVAREELFITSKVWNEDQGYETTLAAFEKSLERLQLDYLDLYLIHWPGKDKYKDTWRALEKLYKDGKIRAIGVSNFQVHHLEELLKDAEIKPMVNQVEFHPRLTQKELRDYCKGQGIQLEAWSPLMQGQLLDNEVLTQIAEKHNKSVAQVILRWDLQHGVVTIPKSIKEHRIIENADIFDFELSQEDMDKIDALNKDERVGPNPDELLF | soluble |
| MDDITDGLRYRISNVIHVSPELTYDGRIMSAGKLLKLMDDLGGIICLRYLDHNSSNLYDNSFNAVVTVAVKGLAFYSPIRLNDIILIRAGLVYVGNTSADILINVVREDLNGAKEHVATAYFTYVRVDKDGKPIKIP | soluble |
| SNADDYTAGKEYVELSSPVPVSQPGKIEVVELFWYGCPHCYAFEPTIVPWSEKLPADVHFVRLPALFGGIWNVHGQMFLTLESMGVEHDVHNAVFEAIHKEHKKLATPEEMADFLAGKGVDKEKFLSTYNSFAIKGQMEKAKKLAMAYQVTGVPTMVVNGKYRFDIGSAGGPEETLKLADYLIEKERAAAKK | soluble |
| MNRLHGQQVKIGYGDNTIINKLDVEIPDGKVTSIIGPNGCGKSTLLKALSRLLAVKEGEVFLDGENIHTQSTKEIAKKIAILPQSPEVADGLTVGELVSYGRFPHQKGFGRLTAEDKKEIDWAMEVTGTDTFRHRSINDLSGGQRQRVWIAMALAQRTDIIFLDEPTTYLDICHQLEILELVQKLNQEQGCTIVMVLHDINQAIRFSDHLIAMKEGDIIATGSTEDVLTQEILEKVFNIDVVLSKDPKTGKPLLVTYDLCRRAYS | not soluble |
| LKRDFIILGNGPRLQNSTYQCKHCDSKLQSTAELTSHLNIHNEEFQKRAKRQERRKQLLSKQKYADGAFADFKQE | soluble |
| MQCLQFDSINLIEHILPDVRFWLVPPSRTHHLHEHFHHISWQTEAIPQTESKPDKPWFALPQTSERQKPEHILVIGAGISGAATAHALASHGISVTVLEARKAAQAASGNRQGLLYAKISPHDTEQTELLLAGYGYTKRLLGHILPESETWGGNGIIHLNYSRTEQQRNHELGLQKHHNHLYRSITSAEAEKIAGIPLSVPYDHPSCGLYWQHGVWLNPPAFVRTLLNHPLIGLHEDTPLTDISHDGEKWIASTPNGTFTATHIIYCTGANSPYLPETNLAALPLRQIRGQTGLTPSTPFSEQLRCAVSGESYISPSWHGLHCYGASFIPNSSHTGWNEAEEASNRQALAHLNPALSESLFAANPNPQKHQGHAAIRCDSPDHLPLVGALGDIAAMRQTYTKLALDKNYRIDTPCPYLPNAYVNTAHGTRGLATAPICAAAIAAQILGLPHPFSQRLRHALHPNRTIIRAIVRRKDLTPLEHHHHHH | not soluble |
| MAQERPSCAVEPEHVQRLLLSSREAKKSAYCPYSRFPVGAALLTGDGRIFSGCNIENACYPLGVCAERTAIQKAISEGYKDFRAIAISSDLQEEFISPCGACRQVMREFGTDWAVYMTKPDGTFVVRTVQELLPASFGPEDLQKIQ | soluble |
| MINSVITQMAEELRKASKVALFSHVSPDGDCIGSMLGIGLALEALGKEVAMFNPDPIPRNLSFLPGVDKITQSMPDPLPETLLFVDCADLQRVQLQREDLPADAVILNLDHHISNQNFGRINWVDSQAAASGELAYALVRRLNVELTQEIAANFYTALLTDTGSFKYANTTAKTHQIAGELMETGISLGDIHHFVFDQTPMVKLELLRRGLNQLQFFAEGQLGMMTLRKQDFEESGAEESLSEGLIDHARTVEGVEVAVLLKEVKPDVVRVSLRSNRWFDVNRIADGFGGGGHQRAAGCTLHLSLEEAKQKVRQIIEEELKLGRSHLEHHHHHH | soluble |
| MQKISRIVNSIYLTAELTAGTANTYDLIAEFFNFGPDSYNKLQSIDMKELKSGLEEIVSIHSELTYTDIDKRAEQRFRHLIEIRKEVEGVGSLEDIKDAQANYKSELETFKKTTFDTAGIEEFQNAVKNFIGAAADVEKYSNLEKLTDVDIMYARPLIYTLKTSIENLAKSYSSINSFDDFEKIRNPSEFVDPISKIVSGYKKYNASRTTIERDGNFAKGMQSNANNMKRLENVASVFEGLGSFVKNLQAVIDVRQTMHLPKYTVGFIDGTFDPKKVVTDLEDDWVQSVTHEMDLNRTINLLLPIGDHVSAIEASFLSSSSKQSKFFTGFKSSETEVSPVDGSIDSIISTSKKVSECIIAPLTYLESIKEVEILLQAIESLKKTVDTLVGTKELVNWVKTNDVVLKEVEALCSYTDEEKKDFESSVPIKLKGLKSSENYTSLIKTLNQSSLFADAVFSEKLSTTGQETAYILGGLQSLDAFYNSATDHIAFFDCLLNVAYYDLIPLAIDTLNKVRKMDVQPIRDGIDVVNDLFNVSNQLDELKTKLRELNDPNFSIAETPLSNPSLHTTTIGLSVRGVIRMKDEIDHRSDFDVVIENAEMVDQEMKNTGKKAINMVEFGSRLKKLKSELEGWKSNITVGGAHRIRRSTPSLADYAHIFQNALKVGGVDDDLKKLMDAVKDFEKTGKDAATKVKLKEVIASLNSLNSIGLQLSSFATPFTAIGQSFSALDAFFVSNGKIITTPAPIVSSSDIRSPTIEDATALVSFLYKLLNDFMKEEGDKGATNNGKLPLKAMYQFCKSILRIANLAPNNAIVESEKYSEQDRYSDVLCGMDNRILIDEDVCRRCYFKDQYINANYLELPNGNRMILTQAPMSRTEHFKPEKDKKRKNLYSLSDEEEEISYLVQTVDKFYQTIVQTGTEVVAMLCDFNEEGVEKCSSYFPLEKDGKQKFHNVNVCTTNVQHPSADVVLRTLVITSYLGEKKKTHTVKHYSYKGWIEKNAPELPREILNIFRVARNSKSLVVHCSNGIGRSAAFVSWELCYHFVPVNFEICDFSVAEFVYQKMIRSLDTTSTVNLDFLSLLTELRHSRPRAIHTPMQLAFSIMMVLDFVMNNFPKGEMEAKYQEIRKSYLHARQMMHKDLEFDGSDGKTVDIALDEDGHGIPEKKGKKKTNKKAAQQASVKKDEKSKKKSKKDSKKGSKMDMKTAEEGMKSLQKKAA | not soluble |
